Consider two variants from FireProtDB (doi:10.1016/j.jmb.2010.09.022).

B1: Profilin, Q58NA1 (parent)
chain: MSDWDPVVKEWLVDTGYCCAGGIANAEDGVVFAAAADDDDGWSKLYKDDHEEDTIGEDGNACGKVSINEASTIKAAVDDGSAPNGVWIGGQKYKVVRPEKGFEYNDCTFDITMCARSKGGAHLIKTPNGSIVIALYDEEKEQDKGNSRTSALAFAEYLHQSGY

Variants of B1 are the subject of the data set. The following applies: Toxoplasma gondii; pH 7.5; Thermal; CD; HEPES 10mM; KCl 100mM; reversible: yes; structure 3NEC; whole UniProt chain shown.

In general, Tm refers to the temperature at which the thermal transition is half complete.

Regarding D38Q D39G, the Tm was found to be 51.3 °C and the “change of melting temperature, mutant - wild type (higher = more stable)” value was -1.8 °C.
With K94Q V95F R97N P98I T112A M113T, the Tm came out at 62.2 °C and the “change of melting temperature, mutant - wild type (higher = more stable)” value was 9.1 °C.
